Experimental data published in patent US20090325883A1 (LES LABORATOIRES SERVIER, published 2009).

B1: Kiaa 1578 peptide (peptide)
peptide: VMTQEVGQLLQDMGDDVYQQYRSL
notes: also called peptide b)
B2: Genematch peptide (peptide)
peptide: RLKHSCLLALKRAADLLGQRSSST
notes: also called peptide c)
B3: Mina53 peptide (peptide)
peptide: VATRRLSGFLRTLADRLEGTKELL
notes: also called peptide e)
B4: Cerd4 peptide (peptide)
peptide: MATVIHNPLKALGDQFYKEAIEHC
notes: also called peptide a)
B5: Loc 51569 peptide (peptide)
peptide: DMWDTRIAKLRVSADSFVRQQEA
notes: also called peptide d)

These binders were tested against T1, Bcl-XL (UniProt Q07817 1-209) (assay: fluorescence polarisation competition; 15 nM Bak BH3 carboxyfluorescein, 100 nM Bcl-XL).
T1 construct: also called anti-apoptotic member Bcl-XL
T1 sequence (Q07817 1-209): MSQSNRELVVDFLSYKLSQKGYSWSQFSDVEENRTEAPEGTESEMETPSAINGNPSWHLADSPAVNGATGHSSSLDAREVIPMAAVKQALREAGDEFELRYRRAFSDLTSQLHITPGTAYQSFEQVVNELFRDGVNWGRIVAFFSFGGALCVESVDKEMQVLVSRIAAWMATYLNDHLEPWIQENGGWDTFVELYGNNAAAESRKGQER

Binder	Ki [µM]
B1	32
B2	1
B3	20
B4	9
B5	8
